Laboratory results as given in publication PMC6421079.

Target: Rubiscolin-6 (Spinacia oleracea)
Test: [3H]DPDPE displacement radioligand binding

B1: Delta opioid receptor, P41143 (protein)
chain: MEPAPSAGAELQPPLFANASDAYPSACPSAGANASGPPGARSASSLALAIAITALYSAVCAVGLLGNVLVMFGIVRYTKMKTATNIYIFNLALADALATSTLPFQSAKYLMETWPFGELLCKAVLSIDYYNMFTSIFTLTMMSVDRYIAVCHPVKALDFRTPAKAKLINICIWVLASGVGVPIMVMAVTRPRDGAVVCMLQFPSPSWYWDTVTKICVFLFAFVVPILIITVCYGLMLLRLRSVRLLSGSKEKDRSLRRITRMVLVVVGAFVVCWAPIHIFVIVWTLVDIDRRDPLVVAALHLCIALGYANSSLNPVLYAFLDENFKRCFRQLCRKPCGRPDPSSFSRAREATARERVTACTPSDGPGGGAAA
  Ki: 1000 nM
